According to patent US20250154276A1 (ZONHON BIOPHARMA INSTITUTE, published 2025):
Substitutions are numbered along the chain they refer to.

B1: 18G272 (bispecific antibody)
chain: DIVMTQSASSLPVTPGEPASISCRSDKSLLHSNGNTYLYWFLQKPGQSPQVLIYRMSNLASGVPDRFSGSGSGTDFTLTISRVEAEDVGVYYCFQQLEYPYTFGQGTKLEIKGGGGSGGGGSGGGGSQVQLVQSGAEVVKPGASVKISCKASGFNIKDTYIYWVRQRTGQGLEWIGRIEPMNGNTKYDPKFQGRLTMTANTSKNTAYLQLSSLTSEDTAVYYCSRGGWLLLYVMDYWGQGTTVTVSSGGGGSDVQLVQSGAEVKKPGASVKVSCKASGYTFTRYTMHWVRQAPGQGLEWIGYINPSRGYTNYADSVKGRFTITTDKSTSTAYMELSSLRSEDTATYYCARYYDDHYCLDYWGQGTTVTVSSGGGGSGGGGSGGGGSDIVLTQSPATLSLSPGERATLSCRASQSVSYMNWYQQKPGKAPKRWIYDTSKVASGVPARFSGSGSGTDYSLTINSLEAEDAATYYCQQWSSNPLTFGGGTKVEIK
B2: 19G294 (bispecific antibody)
chain: DIVMTQSPSSLSVTPGERVSISCRSDKSLLHSNGNTYLYWFLQKPGQSPQVLIYRMSNLASGVPDRFSGSGSGTDFTLTISRVEAEDVGVYYCFQQLEYPYTFGQGTKLEIKGGGGSGGGGSGGGGSEVQLVQSGAELVKPGASVKLSCAASGFNIKDTYIYWVRQAPGQGLEWVGRIEPMNGNTKYDPKFQGRFTMTANTSKNTAYLQLSSLRSEDTAVYYCSRGGWLLLYVMDYWGQGTLVTVSSGGGGSDVQLVQSGAEVKKPGASVKVSCKASGYTFTRYTMHWVRQAPGQGLEWIGYINPSRGYTNYADSVKGRFTITTDKSTSTAYMELSSLRSEDTATYYCARYYDDHYCLDYWGQGTTVTVSSGGGGSGGGGSGGGGSDIVLTQSPATLSLSPGERATLSCRASQSVSYMNWYQQKPGKAPKRWIYDTSKVASGVPARFSGSGSGTDYSLTINSLEAEDAATYYCQQWSSNPLTFGGGTKVEIK
B3: ZA23 (bispecific antibody, human IgG1, kappa)
heavy 1: QVQLVQSGAEVVKPGASVKISCKASGFNIKDTYIYWVRQRTGQGLEWIGRIEPMNGNTKYDPKFQGRLTMTANTSKNTAYLQLSSLTSEDTAVYYCSRGGWLLLYVMDYWGQGTTVTVSSASTKGPSVFPLAPSSKSTSGGTAALGCLVKDYFPEPVTVSWNSGALTSGVHTFPAVLQSSGLYSLSSVVTVPSSSLGTQTYICNVNHKPSNTKVDKKVEPKSCDKTHTCPPCPAPEFLGGPSVFLFPPKPKDTLMISRTPEVTCVVVDVSQEDPEVQFNWYVDGVEVHNAKTKPREEQFNSTYRVVSVLTVLHQDWLNGKEYKCKVSNKGLPSSIEKTISKAKGQPREPQVYTLPPCQEEMTKNQVSLWCLVKGFYPSDIAVEWESNGQPENNYKTTPPVLDSDGSFFLYSRLTVDKSRWQEGNVFSCSVMHEALHNHYTQKSLSLSLGK
light 1: DIVMTQSASSLPVTPGEPASISCRSDKSLLHSNGNTYLYWFLQKPGQSPQVLIYRMSNLASGVPDRFSGSGSGTDFTLTISRVEAEDVGVYYCFQQLEYPYTFGQGTKLEIKRTVAAPSVFIFPPSDEQLKSGTASVVCLLNNFYPREAKVQWKVDNALQSGNSQESVTEQDSKDSTYSLSSTLTLSKADYEKHKVYACEVTHQGLSSPVTKSFNRGEC
heavy 2: DVQLVQSGAEVKKPGASVKVSCKASGYTFTRYTMHWVRQAPGQGLEWIGYINPSRGYTNYADSVKGRFTITTDKSTSTAYMELSSLRSEDTATYYCARYYDDHYCLDYWGQGTTVTVSSASTKGPSVFPCAPSSKSTSGGTAALGCLVKDYFPEPVTVSWNSGALTSGVHTFPAVLQSSGLYSLSSVVTVPSSSLGTQTYICNVNHKPSNTKVDKKVEPKSSDKTHTCPPCPAPEFLGGPSVFLFPPKPKDTLMISRTPEVTCVVVDVSQEDPEVQFNWYVDGVEVHNAKTKPREEQFNSTYRVVSVLTVLHQDWLNGKEYKCKVSNKGLPSSIEKTISKAKGQPREPQVCTLPPSQEEMTKNQVSLSCAVKGFYPSDIAVEWESNGQPENNYKTTPPVLDSDGSFFLVSRLTVDKSRWQEGNVFSCSVMHEALHNHYTQKSLSLSLGK
light 2: DIVLTQSPATLSLSPGERATLSCRASQSVSYMNWYQQKPGKAPKRWIYDTSKVASGVPARFSGSGSGTDYSLTINSLEAEDAATYYCQQWSSNPLTFGGGTKVEIKRTVAAPSVFICPPSDEQLKSGTASVVCLLNNFYPREAKVQWKVDNALQSGNSQESVTEQDSKDSTYSLSSTLTLSKADYEKHKVYACEVTHQGLSSPVTKSFNRGES
B4: ZA16 (bispecific antibody, human IgG1, kappa)
heavy 1: not shown
light 1: B3 light 1 with A8P, P12S, P18R, A19V
heavy 2: not shown
light 2: B3 light 2

Columns and labels:
human CD26 [1] = target: T1, human CD26 (human, UniProt P27487 1-766); assay: cell-based or functional assay
human CD26 [2] = target: T1, human CD26; assay: cell-based or functional assay; remark: listed apart in the source

Row | Binder | IC50 values (pM) of different bispecific antibodies mediating PBMC cytotoxicity to different target cells (786-0) (human CD26 [1]) | IC50 values (pM) of different bispecific antibodies mediating PBMC cytotoxicity to different target cells (NCI-H226) (human CD26 [1]) | IC50 values (pM) of different bispecific antibodies mediating PBMC cytotoxicity to different target cells (OS-RC-2) (human CD26 [1]) | IC50 values (pM) of different bispecific antibodies mediating PBMC cytotoxicity to different target cells (PC-3) (human CD26 [1]) | IC50 values (pM) of different bispecific antibodies mediating PBMC cytotoxicity to OS-RC-2 (human CD26 [2])
1 | B1 | 41.4 pM | 2.6 pM | 5.2 pM | 6.9 pM | –
2 | B2 | 4.7 pM | 13.7 pM | 9.9 pM | 4 pM | 9.9 pM
3 | B3 | – | – | – | – | 87.5 pM
4 | B4 | – | – | – | – | 5.8 pM
